In article PMC9798004 (Frontiers in Psychiatry, 2022) one finds EC80 data, which are given here for 10 molecules.

What all share (assay): PathHunter β-arrestin assay
Holding throughout (type): cell-based

The target of one assay is T1, MRGPRX1 (Homo sapiens, UniProt Q96LB2).
T1 construct: purchased Eurofins DiscoverX (PathHunter gpcrMAX)
To be noted: screen, control agonist; CHO, 37C, 2HR.

A further assay has as its target T2, MRGPRX2 (Homo sapiens, UniProt Q96LB1).
T2 sequence (Q96LB1 1-330): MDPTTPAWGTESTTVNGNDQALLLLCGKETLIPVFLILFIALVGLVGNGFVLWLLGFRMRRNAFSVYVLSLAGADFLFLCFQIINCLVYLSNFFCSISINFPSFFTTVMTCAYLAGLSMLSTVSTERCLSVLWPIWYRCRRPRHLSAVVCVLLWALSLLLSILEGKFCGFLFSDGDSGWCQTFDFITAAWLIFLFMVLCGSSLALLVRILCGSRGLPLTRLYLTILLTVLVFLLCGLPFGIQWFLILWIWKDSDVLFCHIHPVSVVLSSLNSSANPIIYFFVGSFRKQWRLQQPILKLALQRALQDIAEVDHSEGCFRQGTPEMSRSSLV
To be noted: control agonist. On the procedure:
(§1) Follow up experiments were prioritized based on the difference between S/N and CoV. Targets with a >5-fold difference between S/N and CoV were investigated for their potential contribution to the AMB-FUBINACA toxidrome with 10-point concentration-response curves generated in technical replicate (range 1.5–30 μM) using the EC80 of the relevant agonist, where applicable in antagonist mode. Simultaneous agonist and antagonist curves were run in parallel to ensure reliability of the assay (see Supplementary Table 2), with both RC50 and signal to background aligning with historical averages, and Z' >0.5. RC50 was estimated using a four-parameter fit (CBIS Data Analysis Suite, ChemInnovation, San Diego, CA) on normalized data.

The target in a further assay is T3, GLP2R (Homo sapiens, UniProt O95838).
T3 sequence (O95838 1-553): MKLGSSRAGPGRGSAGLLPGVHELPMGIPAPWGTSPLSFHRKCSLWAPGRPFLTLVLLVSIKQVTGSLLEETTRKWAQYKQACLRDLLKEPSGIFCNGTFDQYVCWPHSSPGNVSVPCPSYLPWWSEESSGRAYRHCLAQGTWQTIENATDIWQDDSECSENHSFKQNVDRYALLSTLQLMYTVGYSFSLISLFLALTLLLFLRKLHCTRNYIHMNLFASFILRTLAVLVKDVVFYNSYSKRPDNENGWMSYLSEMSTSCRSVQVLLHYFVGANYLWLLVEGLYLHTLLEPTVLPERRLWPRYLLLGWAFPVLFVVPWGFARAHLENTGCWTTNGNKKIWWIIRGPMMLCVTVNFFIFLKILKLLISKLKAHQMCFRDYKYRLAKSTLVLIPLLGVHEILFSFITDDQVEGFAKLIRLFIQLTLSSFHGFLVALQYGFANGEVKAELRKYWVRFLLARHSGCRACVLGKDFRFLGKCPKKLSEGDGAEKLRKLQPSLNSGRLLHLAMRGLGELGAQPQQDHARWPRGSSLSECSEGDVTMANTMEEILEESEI
The settings on record: control agonist. The protocol: as §1

Another assay addresses T4, GRPR (Homo sapiens, UniProt P30550).
T4 construct: purchased Eurofins DiscoverX (PathHunter gpcrMAX)
To be noted: control agonist. On the procedure: as §1

A further assay has as its target T5, MCHR2 (Homo sapiens, UniProt Q969V1).
T5 construct: purchased Eurofins DiscoverX (PathHunter gpcrMAX)
To be noted: screen, control agonist; U2OS, 37C, 2HR.

For the next assay, the target named is T6, MLNR (Homo sapiens, UniProt O43193).
T6 construct: purchased Eurofins DiscoverX (PathHunter gpcrMAX)
T6 sequence (O43193 whole entry): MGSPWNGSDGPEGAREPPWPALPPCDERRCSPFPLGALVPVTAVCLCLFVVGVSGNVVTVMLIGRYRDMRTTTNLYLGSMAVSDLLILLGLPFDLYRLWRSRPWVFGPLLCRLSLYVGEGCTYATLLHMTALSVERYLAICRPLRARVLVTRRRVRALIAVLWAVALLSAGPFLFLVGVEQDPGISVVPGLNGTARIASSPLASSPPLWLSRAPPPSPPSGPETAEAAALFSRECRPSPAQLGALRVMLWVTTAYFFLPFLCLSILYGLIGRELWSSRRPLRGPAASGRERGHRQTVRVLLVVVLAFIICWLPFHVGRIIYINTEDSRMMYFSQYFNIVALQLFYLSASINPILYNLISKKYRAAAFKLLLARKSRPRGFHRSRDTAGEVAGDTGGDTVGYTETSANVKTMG
The settings on record: screen, control agonist; CHO, 37C, 2HR.

The next assay addresses T7, NMU1R (Homo sapiens, UniProt Q9HB89).
T7 construct: purchased Eurofins DiscoverX (PathHunter gpcrMAX)
T7 sequence (Q9HB89 1-426): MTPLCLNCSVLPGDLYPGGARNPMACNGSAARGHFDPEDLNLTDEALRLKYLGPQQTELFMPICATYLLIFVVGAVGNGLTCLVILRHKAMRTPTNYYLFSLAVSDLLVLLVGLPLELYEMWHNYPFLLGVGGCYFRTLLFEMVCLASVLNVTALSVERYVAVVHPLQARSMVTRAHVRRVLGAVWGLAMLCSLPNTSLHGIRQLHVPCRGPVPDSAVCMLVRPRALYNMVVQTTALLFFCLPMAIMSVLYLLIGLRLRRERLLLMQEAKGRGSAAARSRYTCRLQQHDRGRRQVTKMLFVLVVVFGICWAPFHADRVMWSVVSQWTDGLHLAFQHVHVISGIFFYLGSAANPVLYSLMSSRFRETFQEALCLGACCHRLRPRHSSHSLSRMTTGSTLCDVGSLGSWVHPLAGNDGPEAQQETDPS
To be noted: screen, control agonist; U2OS, 37C, 2HR.

A further assay deals with T8, NPBWR1 (Homo sapiens, UniProt P48145).
T8 construct: purchased Eurofins DiscoverX (PathHunter gpcrMAX)
T8 sequence (P48145 1-328): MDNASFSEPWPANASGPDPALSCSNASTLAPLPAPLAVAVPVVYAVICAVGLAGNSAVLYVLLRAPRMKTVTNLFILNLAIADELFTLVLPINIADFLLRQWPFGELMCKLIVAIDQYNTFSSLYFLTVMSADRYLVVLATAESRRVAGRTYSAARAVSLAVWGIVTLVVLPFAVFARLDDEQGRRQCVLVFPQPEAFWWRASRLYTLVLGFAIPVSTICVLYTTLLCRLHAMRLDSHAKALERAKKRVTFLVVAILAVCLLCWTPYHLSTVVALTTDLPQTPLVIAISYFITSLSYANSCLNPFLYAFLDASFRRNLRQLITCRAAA
To be noted: screen, control agonist; CHO, RT, 2HR.

A further assay has as its target T9, NPBWR2 (Homo sapiens, UniProt P48146).
T9 construct: purchased Eurofins DiscoverX (PathHunter gpcrMAX)
To be noted: screen, control agonist; CHO, 37C, 2HR.

In another assay the target is T10, NPFFR1 (Homo sapiens, UniProt Q9GZQ6).
T10 construct: purchased Eurofins DiscoverX (PathHunter gpcrMAX)
T10 sequence (Q9GZQ6 whole entry): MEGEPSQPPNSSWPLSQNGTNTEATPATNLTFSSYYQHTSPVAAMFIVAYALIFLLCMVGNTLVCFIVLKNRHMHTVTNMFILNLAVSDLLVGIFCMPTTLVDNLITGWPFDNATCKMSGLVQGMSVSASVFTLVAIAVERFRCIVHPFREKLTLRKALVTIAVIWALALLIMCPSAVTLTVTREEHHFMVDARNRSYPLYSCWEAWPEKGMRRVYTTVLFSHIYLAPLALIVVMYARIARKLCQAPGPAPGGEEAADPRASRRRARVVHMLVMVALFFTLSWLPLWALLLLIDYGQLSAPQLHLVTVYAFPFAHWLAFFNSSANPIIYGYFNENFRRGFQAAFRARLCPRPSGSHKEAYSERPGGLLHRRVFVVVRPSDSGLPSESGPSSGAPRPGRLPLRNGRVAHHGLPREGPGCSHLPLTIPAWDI
To be noted: screen, control agonist; CHO, 37C, 2HR.

A further assay concerns the target T11, CCR10 (Homo sapiens, UniProt P46092).
T11 sequence (P46092 1-362): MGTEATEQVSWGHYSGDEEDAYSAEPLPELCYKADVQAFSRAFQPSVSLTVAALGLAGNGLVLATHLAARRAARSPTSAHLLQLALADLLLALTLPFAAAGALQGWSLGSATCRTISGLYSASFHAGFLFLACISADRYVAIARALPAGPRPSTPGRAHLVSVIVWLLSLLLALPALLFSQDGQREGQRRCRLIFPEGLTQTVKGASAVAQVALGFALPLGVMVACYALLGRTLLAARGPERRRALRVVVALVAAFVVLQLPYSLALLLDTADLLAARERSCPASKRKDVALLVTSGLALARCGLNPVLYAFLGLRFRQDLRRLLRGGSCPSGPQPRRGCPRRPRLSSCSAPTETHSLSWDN
To be noted: control agonist. The protocol:
as §1

The mark [1] stands for this setting: follow-up concentration-response assays.

No end group written: not given here.

T4 sequence (P30550 whole entry): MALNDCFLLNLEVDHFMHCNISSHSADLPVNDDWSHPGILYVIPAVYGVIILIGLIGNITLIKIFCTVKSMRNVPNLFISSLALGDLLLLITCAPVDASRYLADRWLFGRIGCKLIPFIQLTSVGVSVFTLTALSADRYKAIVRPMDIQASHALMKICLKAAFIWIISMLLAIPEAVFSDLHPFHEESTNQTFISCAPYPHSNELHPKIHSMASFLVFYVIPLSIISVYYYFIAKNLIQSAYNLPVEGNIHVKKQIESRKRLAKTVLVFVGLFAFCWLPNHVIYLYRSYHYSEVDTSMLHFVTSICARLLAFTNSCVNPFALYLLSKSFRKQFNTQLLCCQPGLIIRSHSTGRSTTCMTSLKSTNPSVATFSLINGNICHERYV
T5 sequence (Q969V1 whole entry): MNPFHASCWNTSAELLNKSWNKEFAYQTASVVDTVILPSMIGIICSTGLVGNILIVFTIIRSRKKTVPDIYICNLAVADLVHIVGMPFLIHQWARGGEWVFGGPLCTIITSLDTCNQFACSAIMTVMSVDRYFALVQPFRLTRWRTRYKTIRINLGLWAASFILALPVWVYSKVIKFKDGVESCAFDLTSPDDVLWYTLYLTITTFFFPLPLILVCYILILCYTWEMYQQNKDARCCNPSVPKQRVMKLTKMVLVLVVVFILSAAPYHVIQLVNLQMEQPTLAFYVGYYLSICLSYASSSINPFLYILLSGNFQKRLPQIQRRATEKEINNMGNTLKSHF
T1 sequence (Q96LB2 whole entry): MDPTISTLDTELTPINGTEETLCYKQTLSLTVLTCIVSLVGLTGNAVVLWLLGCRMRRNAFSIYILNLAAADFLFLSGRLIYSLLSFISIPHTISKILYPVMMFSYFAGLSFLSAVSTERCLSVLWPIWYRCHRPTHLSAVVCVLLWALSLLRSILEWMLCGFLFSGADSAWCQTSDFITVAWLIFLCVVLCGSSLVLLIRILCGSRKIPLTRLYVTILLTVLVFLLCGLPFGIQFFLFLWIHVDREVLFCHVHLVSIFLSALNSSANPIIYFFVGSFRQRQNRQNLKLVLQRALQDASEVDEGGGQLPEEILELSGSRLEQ
T9 sequence (P48146 whole entry): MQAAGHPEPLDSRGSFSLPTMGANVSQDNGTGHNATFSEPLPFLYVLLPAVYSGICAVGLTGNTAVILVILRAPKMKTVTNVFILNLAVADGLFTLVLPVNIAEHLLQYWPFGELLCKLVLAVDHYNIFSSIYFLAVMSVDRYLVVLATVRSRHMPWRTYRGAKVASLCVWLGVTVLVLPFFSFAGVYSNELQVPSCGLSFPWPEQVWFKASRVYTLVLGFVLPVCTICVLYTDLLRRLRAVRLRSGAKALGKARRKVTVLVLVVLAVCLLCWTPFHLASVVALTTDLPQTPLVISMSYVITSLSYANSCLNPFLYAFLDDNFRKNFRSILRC

One may read the EC80 as the concentration at which the effect reaches the 80% level. Read a high EC80 as a need for much substance. Molecule BAM(8-22) gave an EC80 at MRGPRX1 of 8580 nM.

“Cortistatin 14 (PCKNFFWKTFSSCK; ends and bridges not checked; cysteine pairing not given here; UniProt Q62949 99-112, looked up) [control agonist]”: the 80% effect concentration (EC80) with MRGPRX2 (setting [1]) was found to be 737.5 nM; with MRGPRX2 (screen, CHO, 37C, 2HR), 738 nM.

With GLP II (1-33), the EC80 in the assay with GLP2R (setting [1]) worked out at 2.96 nM; in the assay with GLP2R (screen, CHO, 37C, 2HR), 8.88 nM.

With “GRP: control agonist for GRPR (VPLPAGGGTVLTKMYPRGNHWAVGHLM; not fully specified (C-terminus); UniProt P07492 24-50, looked up)”, the EC80 was found to be 1.95 nM with GRPR (setting [1]) and 5.85 nM with GRPR (screen, U20S, 37C, 2HR).

With “MCH: control agonist for MCHR1 and MCHR2”, the EC80 with MCHR2 turned out to be 59.3 nM.

With Motilin, the EC80 with MLNR amounted to 5.69 nM.

As for “Neuromedin U-25 (FRVDEEFQSPFASQSRGYFLFRPRN; ends and bridges not checked; UniProt P48645 142-166, looked up) [control agonist]”, in the assay with NMU1R, the EC80 came to 3.63 nM.

For “Neuropeptide W23 (WYKHVASPRYHTVGRAAGLLMGL; Neuropeptide W-23; UniProt Q8N729 33-55, looked up) [control agonist]”, the EC80 with NPBWR1 was 8.1 nM; with NPBWR2, 4.04 nM.

RFRP-3 yielded an EC80 with NPFFR1 of 148 nM.

B1: CCL27: control agonist (protein, UniProt Q9Y4X3 25-112, looked up)
C-C motif chemokine 27: FLLPPSTACCTQLYRKPLSDKLLRKVIQVELQEADGDCHLQAFVLHLAQRSICIHPQNPSLSQWFEHQERKLHGTLPKLNFGMLRKMG
Turning to B1, the EC80 with CCR10 (setting [1]) is 90.49 nM; with CCR10 (screen, U2OS, 37C, 2HR), 30.2 nM.
